According to patent publication US11673916B2, “Neuroprotective peptides and methods of their use” (University of Pittsburgh—Of the Commonwealth System of …, priority 2020, dated 2023):

Experiments:
[1] = system: MCAo mouse model of ischemic stroke; assay: Murine neurological score (MNS) after MCAo; assay type: in vivo; settings: 50 minutes left MCAo, IP injection at one and six hours post-reperfusion, versus scrambled control (FIG. 6E)
Experimental: To analyze neurological deficits following MCA stroke, testing was performed by a blinded experimenter on additional cohorts, both at baseline (all initial scores were 0) and on post-stroke days 1, 2, 3, 5, 7, 10, 14, 21, 28, 35, and 42. An objective murine neurological score (Table 3) was assigned on each date, ranging from 0 (no neurological deficit) to 8 (stroke-related death) (Yeh et al., J Neurosci. 37: 5648-5658, 2017).
Twenty-four hours following cerebral reperfusion after MCAo, total infarct ratios were analyzed (FIG. 6B) in tetrazolium chloride-stained brain sections (FIGS. 6B and 6C). […] Preparation of peptides, MCAo surgery and injection, as well as infarct analysis were all randomized and performed blindly. A second cohort of mice was subjected to 50-minute MCAo, followed by TAT-DP-2 or TAT-Sc-2 injection at one and six-hours post-reperfusion (FIG. 6A). A different, blinded observer then analyzed each animal and assigned an objective murine neurological score (MNS; Table 3) to each mouse over a 42-day period. As the MNS is based solely on characteristic motor deficits developed following left MCAo, all animals initially scored zero on the scale.

[2] = molecular target: T1, endogenous Kv2.1 channels (Rattus norvegicus, UniProt P15387); assay: Immunocytochemistry of endogenous Kv2.1 channel clusters in fixed cortical neurons; assay type: cell-based; settings: 10 μM, three-hour treatment, mean±SEM (FIG. 10B)
T1 construct: in order to visualize the distribution of endogenous Kv2.1 channels; endogenous in cells; host or cells: primary rat cortical neurons
T1 sequence (P15387 1-857): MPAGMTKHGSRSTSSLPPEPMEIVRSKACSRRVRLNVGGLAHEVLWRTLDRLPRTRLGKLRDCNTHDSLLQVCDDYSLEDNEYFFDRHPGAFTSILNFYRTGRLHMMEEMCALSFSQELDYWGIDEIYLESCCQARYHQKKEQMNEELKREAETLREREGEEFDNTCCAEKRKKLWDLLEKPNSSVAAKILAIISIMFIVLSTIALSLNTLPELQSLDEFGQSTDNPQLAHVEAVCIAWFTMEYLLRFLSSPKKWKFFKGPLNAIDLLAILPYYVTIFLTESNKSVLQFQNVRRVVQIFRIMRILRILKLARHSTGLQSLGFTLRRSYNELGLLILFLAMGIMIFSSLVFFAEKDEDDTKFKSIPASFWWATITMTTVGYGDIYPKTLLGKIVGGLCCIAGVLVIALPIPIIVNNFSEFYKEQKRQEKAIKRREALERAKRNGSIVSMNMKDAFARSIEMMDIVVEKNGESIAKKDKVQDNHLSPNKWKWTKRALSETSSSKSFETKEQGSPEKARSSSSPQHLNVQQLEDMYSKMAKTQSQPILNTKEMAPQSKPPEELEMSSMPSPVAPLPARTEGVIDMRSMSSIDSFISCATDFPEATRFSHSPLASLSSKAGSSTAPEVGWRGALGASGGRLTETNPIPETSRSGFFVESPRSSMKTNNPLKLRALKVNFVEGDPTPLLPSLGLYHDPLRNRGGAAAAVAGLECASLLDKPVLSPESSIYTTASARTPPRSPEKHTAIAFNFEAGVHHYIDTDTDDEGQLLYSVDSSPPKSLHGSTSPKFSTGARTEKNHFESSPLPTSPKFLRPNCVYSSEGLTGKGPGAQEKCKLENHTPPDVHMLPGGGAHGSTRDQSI
Experimental: The in vitro Kv2.1 immunofluorescence experiment (FIG. 10) was carried out in DIV 21-26 primary rat neuronal cultures, as described above. Each coverslip was treated with either TAT-DP-2 or TAT-Sc-2 in its individual well to reach a final concentration of […] 3 hours, coverslips were transferred to PBS and immediately fixed with 4% paraformaldehyde/4% sucrose for 15 minutes. Coverslips were rinsed with PBS 3 times and then permeabilized with 0.25% triton-X-100 for 15 minutes. Cells were rinsed with PBS 3 times and then blocked with 2% BSA/10% normal goat serum for 1 hour at room temperature. […]
To analyze Kv2.1 distribution in live primary cortical neurons, cells were transfected with both a tdTomato construct and a GFP-tagged Kv2.1 construct (O'Connell, et al., J Neurosci. 26: 9609-9618, 2006) and imaged on a Nikon A1+ confocal microscope (Nikon, Tokyo, Japan). […] For live images of transfected neurons, object count parameters were customized to define a Kv2.1 cluster as an area of high intensity GFP fluorescence (compared to background), measuring 0.05 μm^2 or larger (Schulien et al., J Physiol (Lond). 594: 2647-2659, 2016). Kv2.1 cluster density was calculated by normalizing the number of Kv2.1 clusters counted to the somatic area of each neuron (#Kv2.1 clusters/μm^2). […]

Sequence | murine neurological score (MNS) over 42 days post-MCAo [1] | mean Kv2.1 surface cluster density (endogenous channels) [2]
YGRKKRRQRRRSIDSFTS [TAT-DP-2, TAT-linked declustering peptide 2] | significant preservation of favorable neurological score | 0.030±0.003 #Kv2.1 clusters/μm^2 of neuronal soma
YGRKKRRQRRRDFSSIST [TAT-Sc-2, TAT-linked scramble control peptide] |  | 0.056±0.005 #Kv2.1 clusters/μm^2 of neuronal soma
